# T1: GST-Abp1 SH3 domain (S. cerevisiae, UniProt P15891 532-592)
# T1 construct: SH3 domain of Abp1, S. cerevisiae
# T1 sequence (looked up): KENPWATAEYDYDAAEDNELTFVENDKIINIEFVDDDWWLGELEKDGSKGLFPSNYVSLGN
# B1: Ynl094w peptide RRPPPPPIPSTQKP (peptide)
# peptide: RRPPPPPIPSTQKP
# notes: stretch of Ynl094w, S. cerevisiae; also called tetradecapeptide in the Ynl094w protein
# Target: T1, GST-Abp1 SH3 domain
# Assay: SPR; BIAcoreX; GST-fused SH3 domains (and GST as control) amine-coupled to CM5 chips; peptides flowed at 25°C in 10 mM HEPES, 150 mM NaCl, 3.4 mM EDTA, 0.005% P20, pH 7.4, 15 μl/min, 500 μM to 65 nM; steady-state model
# Conditions: both partners purified
binder,measurement,value
B1,Kd,≥ 100 µM

# Source: publication PMC314469, “Protein Interaction Networks by Proteome Peptide Scanning” (PLoS Biology, 2004)
